# Legend:
# [1] = target: T1, wild-type human EGFR protein on the surface of cells (A431, HEB, U87MG) (human, UniProt P00533 25-1210); assay: FACS on A431 cells
# T1 construct: whole, on cells; One molecule for all three cell lines; the cell line is named under assay; also called wild-type EGFR
# Procedure: (§1) The collected cells are suspended to 2×10⁶ cells/mL with an FACS buffer (HBSS+1% BSA, with the percentage being the mass percentage), added to a 96-well FACS reaction plate at 100 μL/well, then added with 100 μL/well of the purified EGFRvIII antibody (samples to be tested) obtained in example 2, and incubated on ice for 2 hours. The plate is centrifugally washed twice with the FACS buffer, added with 100 μL/well of a fluorescence (Alexa 488) labeled secondary antibody (purchased from Invitrogen), and then incubated on ice for 1 hour. The plate is centrifugally washed 3 times with the FACS buffer, added with 100 μL/well of a fixing solution [4% (v/v) paraformaldehyde] for suspending the cells, and centrifugally washed twice with the FACS buffer after 10 minutes. The cells are suspended in 100 μL of the FACS buffer, and the results are detected and analyzed by FACS (FACS Calibur, purchased from BD). Data analysis is performed by using the software (CellQuest) to obtain the mean fluorescence intensity (MFI) of the cells. Data is further analyzed by using the software (GraphPad Prism5) to perform data fitting and calculate EC50. […] A431 cells (human epidermal cell cancer cell lines) have a large amount of wild-type EGFR protein expressed on the surface thereof. […] U87MG cells (human glioma cell lines) have a small amount of wild-type EGFR protein expressed on the surface thereof, while HEB cells (human glioma cell lines) have a high level of wild-type EGFR protein expression on the surface thereof.
# [2] = target: T2, human EGFRvIII protein on the surface of U87MG-hEGFRvIII cells (human, UniProt P00533 25-1210); assay: FACS on U87MG-hEGFRvIII cells
# T2 construct: whole, on cells; Stably transfected U87MG cells; also called mutant EGFRvIII protein; U87MG-EGFRvIII
# Procedure: as §1, with “The cells are washed twice with the HBSS buffer and are counted, and then the cells are diluted with the HBSS buffer to 2×10⁶ cells/ml, added with 1% goat serum blocking solution, with the percentage being the mass percentage, and incubated on ice for 30 minutes, and then centrifugally washed twice with the HBSS buffer. The collected” for “The collected”
# [3] = target: T3, human wild-type EGFR protein on the cell surface (human, UniProt P00533 25-1210); assay: FACS on CHOk1-EGFR cells
# T3 construct: whole, on cells; Endogenous on A431, HEB, U87MG cells and normal human primary hepatocytes; transfected on CHOk1-EGFR cells; The cell is named under assay; also called A431; HEB
# Procedure: as §1, with “The cells are washed twice with the HBSS buffer and are counted, and then the cells are diluted with the HBSS buffer to 2×10⁶ cells/ml, added with 1% goat serum blocking solution, with the percentage being the mass percentage, and incubated on ice for 30 minutes, and then centrifugally washed twice with the HBSS buffer. The collected” for “The collected”
# [4] = target: T4, human EGFRvIII-hFc protein (human, UniProt P00533 25-645); assay: ELISA, EGFRvIII-hFc coated
# T4 construct: extracellular domain; also called immunogen A; hFc-tagged EGFRvIII protein; not shown: human IgG Fc fragment (hFc) of the pCpC vector
# Procedure: The purified immunogen A (EGFRvIII-hFc) obtained in example 1 (for the preparation method, see step (I) in example 1) is diluted with PBS to a final concentration of 1.0 μg/mL, and then added to a 96-well ELISA plate at 100 μl/well. The plate is sealed with a plastic film and incubated at 4° C. overnight. The next day, the plate is washed twice with a plate washing solution [PBS+0.01% (v/v) Tween20], and added with a blocking solution [PBS+0.01% (v/v) Tween20+1% (w/w) BSA] for blocking 2 hours at room temperature. […] The plate is incubated for 2 hours at 37° C., and then washed 3 times with the plate washing solution [PBS+0.01% (v/v) Tween20]. The plate is added with an HRP (horseradish peroxidase) labeled secondary antibody (purchased from Sigma), incubated at 37° C. for 2 hours, and then washed 3 times with the plate washing solution [PBS+0.01% (v/v) Tween20]. The plate is added with 100 μl of TMB substrate/well, incubated for 30 minutes at room temperature, and then added with 100 μl of stopping solution (1.0N HCl)/well. A450 nm value is read using an ELISA plate reader (SpectraMax 384plus, purchased from Molecular Device), and the results are shown in FIG. 11 and table 19.
# [5] = target: T5, human EGFRvIII protein on the cell surface (human, UniProt P00533 25-1210); assay: FACS on CHOk1-EGFRvIII cells
# T5 construct: whole, on cells; the cell line is named under assay; also called hEGFRvIII; U87MG-hEGFRvIII
# Procedure: The desired cells are subjected to an expanded culture to 90% confluence in a T-75 cell culture flask; the medium is sucked out, and the cells are washed twice with a HBSS buffer (Hanks Balanced Salt Solution) (purchased from Invitrogen), and then treated with an enzyme-free cell dissociation solution (Versene solution: purchased from Life Technology) and collected. The cells are washed twice with the HBSS buffer and are counted, and then the cells are diluted with the HBSS buffer to 2×10⁶ cells/ml, added with 1% goat serum blocking solution, with the percentage being the mass percentage, and incubated on ice for 30 minutes, and then centrifugally washed twice with the HBSS buffer. The collected cells are suspended to 2×10⁶ cells/mL with an FACS buffer (HBSS+1% BSA, with the percentage being the mass percentage), added to a 96-well FACS reaction plate at 100 μL/well, then added with 100 μL/well of the purified EGFRvIII antibody (samples to be tested) obtained in example 2, and incubated on ice for 2 hours. The plate is centrifugally washed twice with the FACS buffer, added with 100 μL/well of a fluorescence (Alexa 488) labeled secondary antibody (purchased from Invitrogen), and then incubated on ice for 1 hour. The plate is centrifugally washed 3 times with the FACS buffer, added with 100 μL/well of a fixing solution [4% (v/v) paraformaldehyde] for suspending the cells, and centrifugally washed twice with the FACS buffer after 10 minutes. The cells are suspended in 100 μL of the FACS buffer, and the results are detected and analyzed by FACS (FACS Calibur, purchased from BD). Data analysis is performed by using the software (CellQuest) to obtain the mean fluorescence intensity (MFI) of the cells. Data is further analyzed by using the software (GraphPad Prism5) to perform data fitting and calculate EC50. […] A431 cells (human epidermal cell cancer cell lines) have a large amount of wild-type EGFR protein expressed on the surface thereof.
Binder,binding result [1],EC50 [2],EC50 [3],Maximum mean fluorescence intensity [3],EC50 [4],Maximum OD450 value [4],EC50 [5],Maximum mean fluorescence intensity [5]
"Murine anti-53D8 (antibody, V domains shown, Mouse hybridoma antibody; also called 53D8H4) VH: QVQLQQSGAELARPGASVKMSCKASGYTFTSYTMHWVKQRPGQGLEWIGYINPSSGYTKYNQIFKDKATLTADKSSSTAYMQLSSLTSEDSAVYYCTRGGGRGFAYWGQGTLVTVSA VL: DILMTQSPSSMSVSLGDTVSITCHASQDINSNIGWLQQKPGKSFKGLIYHGTNLEDGVPSRFSGSGSGADYSLTISSLESEDFADYYCVQYAQFPFTFGSGTKLEIK",no binding,6.8 nM,,,,,,
"Murine anti-64B11 (antibody, V domains shown, Mouse hybridoma antibody; also called 64B11F2) VH: EVQLQQSGAELVKPGASVKLSCTASGFNIKDYYMHWVKQRTEQGLEWIGRIDPEDGETKYAPKFQGKATITADTSSNTAYLQLSNLPSEDTAVYYCGCRTGGFAYWGQGTLVTVSA VL: DILMTQSPSSMSVSLGDTVSITCHASQGINSNIGWLQQKPGKSFKALIYHGTNLEDGVPSRFSGSGSGADYSLTISSLESEDFADYYCVQYAQFPFTFGSGTELEIK",no binding,25.3 nM,,,,,,
"Murine anti-56F10 (antibody, V domains shown, Mouse hybridoma antibody; also called 56F10G2) VH: EVQLQQSGAELVKPGASVKLSCTASGFNIKDFYMHWVKQRTEQGLEWIGRIDPEDGETKYAPKFQGKATITADTSSNTAYLQLSSLTSEDTAVYYCGCRTGGFAYWGQGTLVTVSA VL: QIVLTQSPAIMSASPGEKVTMTCSASSSVSYLYWYQQKPGSSPSLLIYDTSNLASGVPVRFSGSGSGTSYSLTISRMEAEDAATYYCQQWSRNPWTFGGGTKLEIK",no binding,12.3 nM,,,,,,
"Murine anti-59G3 (antibody, V domains shown, Mouse hybridoma antibody; also called 59G3F12) VH: DVQLQESGPGLVKPSQSLSLTCSVTGYSITSGYYWHWIRQFPENKLEWMGYISYDGSNIYNPSLKNRISITRDTSKNQFFLKLNSVTTEDTATYYCAINSDYALDYWGQGTSVTVSS VL: QIVLTQSPAIMSASPGEKVTMTCSASSSVSYMYWYQQKPGSSPRLLIYDTSNLASGVPVRFSGSGSGTSYSLTISRMEAEDAATYYCQQWSSYSLTFGAGTKLELK",no binding,40.9 nM,,,,,,
"c75G7C6-1 (antibody, human IgG1, V domains shown, Chimeric 75G7C6 with NG of heavy chain CDR2 mutated to NA; also called c754G7C6-1; mutant chimeric antibody NG/NA) VH: EVQLQQSGPELVKPGASVKIPCKASGYTFTDYNMDWVKQSHGKSLEWIGDINPNNADTIYNQKFKGKATLTVDKSSSTAYMELRSLTSEDTAVYYCARGDYDGYYPVYYAMDYWGQGTSVTVSS VL: ENVLTQSPAIMSASPGEKVTMTCRASSSVSSSYLHWYQQKSGASPKLWIFSTSNLAAGVPARFSGSGSGTSYSLTVSSVEAEDAATYYCQQYSGYPLTFGAGTKLELK",,,11.3 nM,134000 MFI,0.02 nM,3.44 OD450,7.45 nM,110000 MFI
"c75G7C6-2 (antibody, human IgG1, V domains shown, Chimeric 75G7C6 with NG of heavy chain CDR2 mutated to QG; also called c754G7C6-2; mutant chimeric antibody NG/QG) VH: EVQLQQSGPELVKPGASVKIPCKASGYTFTDYNMDWVKQSHGKSLEWIGDINPNQGDTIYNQKFKGKATLTVDKSSSTAYMELRSLTSEDTAVYYCARGDYDGYYPVYYAMDYWGQGTSVTVSS VL: ENVLTQSPAIMSASPGEKVTMTCRASSSVSSSYLHWYQQKSGASPKLWIFSTSNLAAGVPARFSGSGSGTSYSLTVSSVEAEDAATYYCQQYSGYPLTFGAGTKLELK",,,16.9 nM,130000 MFI,0.03 nM,3.23 OD450,11.6 nM,111000 MFI
"Murine anti-49G12 (antibody, V domains shown, Mouse hybridoma antibody; also called 49G12G5) VH: EVQLLQSGAELVKPGASVKLSCTASGFNIKDYYMHWVKQRTEQGLEWIGRIDPEDGETKYAPKFQGKATMTADTSSNTAYLQLSSLTSEDTAVYYCASSAYYGRNYWGQGTTLTVSS VL: QIVLTQSPAIMSASPGEKVTLTCSASSSLSSSYLYWYQQKPGSSPKLWIYSTSNLASGVPARFSGSGSGTSYSLTISSMEAEDAASYFCHQWSSYPYTFGGGTKLEIK",no binding,7.9 nM,,,,,,
"Murine anti-51G7 (antibody, V domains shown, Mouse hybridoma antibody; also called 51G7C2) VH: EVQLQQSGAELVKPGASVKLSCTASGFNIKDFYIHWVKQRTEQGLEWIGRIDPEDGETKYAPKFQDKATIIADTSSNTAYLQLSSLTSEDTAVYYCASSSYYGNNYWGQGTTLTVSS VL: QIVLTQSPAIMSASPGEKVTLTCSASSSVSSNYLYWYQQKPGSSPKLWIYSTSNLASGVPARFSGSGSGTSYSLTISSMEAEDAASYFCHQWSSFPYTFGGGTKLEIK",no binding,26.2 nM,,,,,,
"Murine anti-46C4 (antibody, V domains shown, Mouse hybridoma antibody; also called 46C4A6) VH: EVHLQQSVAELVRPGASVKLSCTASGFNIKNTYMHWVKQRPEQGLEWIGRIDPANGNTKYAPKFQGKATITADTSSNTAYLQLSSLTSEDTAIYYCASDFDYWGQGTTLTVSS VL: DVLMTQTPLSLPVSLGDQVSISCRSSQSIVNSNGNTHLEWYLQKPGQSPKVLIYKVSKRFSGVPDRFSGSGSGTDFTLKISRVEAEDLGVYYCFQGSHVPYTFGGGTKLEIK",no binding,13.3 nM,,,,,,

# — patent US20210032351A1 (XDCEXPLORER SHANGHAI, published 2021)
